Reference: paper PMC4906797

Tested on: C/C=C/C=C/C(=O)CC(=O)SCCNC(C)=O
Assay: purified protein

Substance: LovB (lovastatin nonaketide synthase) (Aspergillus terreus)
- kcat: 3.27 s⁻¹
